This is an account of results in patent US20190359653A1 (Genentech, published 2019).

Where two headings read alike, the source gives them in different places. Numbered stars: 1 amine (or outer) side, 2 acyl side, 3 side chain; on linkers, the order of the positions; unused ones are H or OH. Square brackets hold non-standard residues; d marks the D form. Ends that are not written are not given here. * marks the point of attachment. ξ: configuration not given here. Adp = 2-amino-3-decyloxy-propionic acid, CCCCCCCCCCOC[C@H](N[*:1])C(=O)[*:2]; Tbh = 6-hydroxy-L-norleucine, O=C([C@H](CCCCO[*:3])N[*:1])[*:2]; hPhe = N[C@@H](CCc1ccccc1)C(=O)O; ξGly(octyl) = CCCCCCCCC(N)C(=O)O; hLeu = CC(C)CC[C@H](N)C(=O)O; Octanoyl = CCCCCCCC(=O)*

In test [1] the target is T1, hFZD8 CRD-Fc (human, UniProt Q9H461 28-158, limits assumed).
T1 construct: domain: CRD; bought (R&D Systems); not shown: Fc part
T1 sequence (looked up): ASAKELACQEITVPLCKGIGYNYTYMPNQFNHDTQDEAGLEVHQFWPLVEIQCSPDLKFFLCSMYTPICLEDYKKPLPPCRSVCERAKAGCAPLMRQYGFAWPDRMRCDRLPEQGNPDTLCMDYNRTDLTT
Nature of the test: spot phage ELISA. In general terms: An ELISA detects its analyte on a solid surface through an enzyme-linked reagent.

The target of test [2] is T2, hFZD7 CRD-Fc (human, UniProt O75084 33-185). Nature of the test: spot phage ELISA.
Test [3] has as its target T2, hFZD7 CRD-Fc. Nature of the test: spot phage ELISA. The source holds these as a separate data set.
Test [4] deals with T3, FZD7 receptor of HEK293-TB cells (human, UniProt O75084 33-574). Nature of the test: cell-based or functional assay.
Test [5] has as its target T3, FZD7 receptor of HEK293-TB cells. Nature of the test: cell-based or functional assay. The source holds these as a separate data set.
For test [6] the target is unchanged. Nature of the test: cell-based or functional assay. The source holds these as a separate data set.
In test [7] the target is T1, hFZD8 CRD-Fc. Nature of the test: spot phage ELISA. This is another data set of the same source.
Test [8] deals with T2, hFZD7 CRD-Fc. Nature of the test: spot phage ELISA. This is another data set of the same source.

Turning to ISLIEAMIALDRVF (also called Fz7-06) [SEQ ID NO 11], the “signal:noise ratio” value was 25.8 with hFZD8 CRD-Fc [1] and 27 with hFZD7 CRD-Fc [2]. Consider ERRVCYPWFEVSQP [SEQ ID NO 29], for which the “signal:noise ratio” value with hFZD8 CRD-Fc [1] amounted to 1.2; with hFZD7 CRD-Fc [2] it was 2.6. In the test with hFZD7 CRD-Fc [3], VPSDDLEFWCAVMY [SEQ ID NO 95] came in with a S/N of 2.1 and a S/W of 0.1. Turning to FLPDQHSHLFLPWGEP [SEQ ID NO 20], the “signal:noise ratio” value stood at 1 in the test with hFZD8 CRD-Fc [1] and 5.3 with hFZD7 CRD-Fc [2]. For IWFKGRFVEFSSLV (also called Fz7-17) [SEQ ID NO 23], in that order: 1 and 7.7.

Regarding PQDLLDWCHYMIVSSD [SEQ ID NO 3], the results for the “signal:noise ratio” value in the test with hFZD8 CRD-Fc [1] and with hFZD7 CRD-Fc [2] were 1.3 and 29.1, respectively. For NPPPECFLSK [SEQ ID NO 27], in that order: 1.1 and 5.2. Ac-SDD[hLeu]EFWCHVMY-NH2 (also: dimer via disulfide bond at Cys8) [dFz7-21Δ2.L6Hol]: the “Best Fit IC50 (nM), Wnt3a-mediated β-catenin signaling in HEK293-TB cells (50 ng/mL mWnt3a), n = 2” value in test [4] turned out to be 16600 nM. For EHDLLLRAMNSFVLIF [SEQ ID NO 25], the results for the “signal:noise ratio” value with hFZD8 CRD-Fc [1] and with hFZD7 CRD-Fc [2] were 1 and 7.6, respectively. For the molecule FWFDFWFG [SEQ ID NO 31], the results for the “signal:noise ratio” value with hFZD8 CRD-Fc [1] and with hFZD7 CRD-Fc [2] were 0.8 and 4.2, respectively. As to LPSDDLEFWCHVMY (also called Fz7-21) [SEQ ID NO 13], the “signal:noise ratio” value turned out to be 1.1 in the test with hFZD8 CRD-Fc [1] and 24.5 with hFZD7 CRD-Fc [2]. For the molecule GDFWPGSLLWEILV [SEQ ID NO 17], the results for the “signal:noise ratio” value with hFZD8 CRD-Fc [1] and with hFZD7 CRD-Fc [2] were 1 and 4.4, respectively. In the test with hFZD7 CRD-Fc [3], AAADDLAAWCHVVY [SEQ ID NO 98] returned a S/N of 50.8 and a S/W of 2.7. LSSGKKVSSYWFNFWF [SEQ ID NO 30]: the entries for the “signal:noise ratio” value with hFZD8 CRD-Fc [1] and in the test with hFZD7 CRD-Fc [2] were 1 and 3.5, respectively. Regarding Ac-LPSDDLEFWSHVMY-NH2 [Fz7-21S], the “Reduction in fold potency vs. dimer” value in test [5] was above 9000 fold. FELLLDLGDLIRLW [SEQ ID NO 8]: the “signal:noise ratio” value was found to be 2 in the test with hFZD8 CRD-Fc [1] and 26.9 with hFZD7 CRD-Fc [2]. The corresponding values for ACSYVIDLWNQCLT [SEQ ID NO 4] are 3.1 and 26.8. On to Ac-SDDK(Octanoyl)EFWCHVMY-NH2 (also: dimer via disulfide bond at Cys8) [dFz7-21Δ2.L6KC (8)], for which the “Best Fit IC50 (nM), Wnt3a-mediated β-catenin signaling in HEK293-TB cells (50 ng/mL mWnt3a)” value in test [4] came to 1170 nM. Turning to TYFDDICNLILPWANP [SEQ ID NO 2], the “signal:noise ratio” value in the test with hFZD8 CRD-Fc [1] was determined as 1.4; in the test with hFZD7 CRD-Fc [2] it was 27.5. As for PPNVHEGCWSMFPW [SEQ ID NO 12], the “signal:noise ratio” value worked out at 1.3 in the test with hFZD8 CRD-Fc [1] and 28.1 in the test with hFZD7 CRD-Fc [2]. With ACSYVIDLWNLCLR [SEQ ID NO 9], the “signal:noise ratio” value with hFZD8 CRD-Fc [1] came out at 1.5; with hFZD7 CRD-Fc [2], 27.6.

Ac-SDD[hPhe]EFWCHVMY-NH2 (also: dimer via disulfide bond at Cys8) [dFz7-21Δ2.L6Hof]: the “Best Fit IC50 (nM), Wnt3a-mediated β-catenin signaling in HEK293-TB cells (50 ng/mL mWnt3a)” value in test [4] turned out to be 14.9 nM.

With LPLFFLSYVL [SEQ ID NO 19], the “signal:noise ratio” value was 1.1 in the test with hFZD8 CRD-Fc [1] and 6.3 in the test with hFZD7 CRD-Fc [2]. The corresponding values for ASELHDWCRMMFPW [SEQ ID NO 10] are 1.3 and 28.9. For SCQMWSNLRVLFLSYW [SEQ ID NO 21], in that order: 0.7 and 1. For the molecule Ac-SDDLEFWCHV[ξGly(octyl)]Y-NH2 (also: dimer via disulfide bond at Cys8) [dFz7-21Δ2.M13C8], the “Best Fit IC50 (nM), Wnt3a-mediated β-catenin signaling in HEK293-TB cells (50 ng/mL mWnt3a)” value in test [4] is 14000 nM. Consider VFVPFSELTSLC [SEQ ID NO 22], for which the “signal:noise ratio” value worked out at 1 with hFZD8 CRD-Fc [1] and 7.8 in the test with hFZD7 CRD-Fc [2]. Take FWMLLQEGFAFWFP [SEQ ID NO 7]: the “signal:noise ratio” value with hFZD8 CRD-Fc [1] was found to be 6.4; with hFZD7 CRD-Fc [2], 30.5. On to ILTFEYFWILGLIL [SEQ ID NO 18], for which the entries for the “signal:noise ratio” value in the test with hFZD8 CRD-Fc [1] and with hFZD7 CRD-Fc [2] were 1.1 and 4.5, respectively. For the molecule FWMQLQDGFAIWFP [SEQ ID NO 15], the “signal:noise ratio” value in the test with hFZD7 CRD-Fc [2] worked out at 27.8.

Turning to Ac-SDDLEFWCHVMY-NH2 (also: homodimer via Cys8 disulfide) [dFz7-21Δ2 (Q519)], in test [5], the “IC50 (nM), TOPbrite reporter assay in HEK293-TB cells stimulated with mWnt3a (50 ng/mL)” value is 8.8 nM and the “Reduction in fold potency vs. dimer” value is 1 fold. Also, the “Best Fit IC50 (nM), Wnt3a-mediated β-catenin signaling in HEK293-TB cells (50 ng/mL mWnt3a)” value in test [4] worked out at 4.3 nM. Consider VFFYHSLFFIKLILDP [SEQ ID NO 28], for which the entries for the “signal:noise ratio” value in the test with hFZD8 CRD-Fc [1] and with hFZD7 CRD-Fc [2] were 1.3 and 4.7, respectively. For the molecule NAFWRDQCLEWFIICL [SEQ ID NO 24], the “signal:noise ratio” value is 1.1 in the test with hFZD8 CRD-Fc [1] and 5.5 with hFZD7 CRD-Fc [2]. In the case of Ac-LPSDDLEFW[dC]HVMY-NH2 [Fz7-21C], in test [6], the “fold reduction of the potency of Wnt1 inhibition against Fz7-21 (FIG. 2D)” value worked out at 16 fold and the “fold reduction of the potency of Wnt3a inhibition against Fz7-21 (FIG. 2D)” value amounted to 31 fold. Turning to Ac-SDDLEFWCHV[Tbh]Y-NH2 (also: dimer via disulfide bond at Cys8) [dFz7-21Δ2.M13Tbh], in test [4], the “Best Fit IC50 (nM), Wnt3a-mediated β-catenin signaling in HEK293-TB cells (50 ng/mL mWnt3a)” value worked out at 477 nM. YEHLHDLMDLIRPW (also called Fz7-07) [SEQ ID NO 1]: the “signal:noise ratio” value in the test with hFZD8 CRD-Fc [1] worked out at 1.6; with hFZD7 CRD-Fc [2] it was 23.2. Turning to HLSDVCCSDWCDLVFW (not fully specified; cysteine pairing not given here, cyclic peptide library) [SEQ ID NO 34], the “signal:noise ratio” value turned out to be 1.09 in the test with hFZD8 CRD-Fc [7] and 16.1 in the test with hFZD7 CRD-Fc [8].

On to FCENPYIICW [SEQ ID NO 26], for which the figures for the “signal:noise ratio” value with hFZD8 CRD-Fc [1] and with hFZD7 CRD-Fc [2] were 0.8 and 8.6, respectively. Consider Ac-SDDLEFWCHV[Adp]Y-NH2 (also: dimer via disulfide bond at Cys8) [dFz7-21Δ2.M13Adp], for which the “Best Fit IC50 (nM), Wnt3a-mediated β-catenin signaling in HEK293-TB cells (50 ng/mL mWnt3a)” value in test [4] came out at 1410 nM. As for DTDLHQWCLWFT [SEQ ID NO 6], the “signal:noise ratio” value in the test with hFZD8 CRD-Fc [1] was determined as 9.3; with hFZD7 CRD-Fc [2] it was 30.2. For DTDLLQWCLWFT [SEQ ID NO 14], in that order: 6 and 31.1. With Ac-LPSDDLEFWCHVMY-NH2 (also: homodimer via Cys10-Cys10 disulfide) [dFz7-21], in test [5], the “IC50 (nM), TOPbrite reporter assay in HEK293-TB cells stimulated with mWnt3a (50 ng/mL)” value came to 11.1 nM and the “Reduction in fold potency vs. dimer” value is 1 fold. The “Best Fit IC50 (nM), Wnt3a-mediated β-catenin signaling in HEK293-TB cells (50 ng/mL mWnt3a)” value in test [4] amounted to 14.1 nM.
